According to patent publication US20080081035:

T1: D-val-leu-lys-pNA
T1 chain: VLK

T2: human recombinant IFN-γ, P01579
T2 chain: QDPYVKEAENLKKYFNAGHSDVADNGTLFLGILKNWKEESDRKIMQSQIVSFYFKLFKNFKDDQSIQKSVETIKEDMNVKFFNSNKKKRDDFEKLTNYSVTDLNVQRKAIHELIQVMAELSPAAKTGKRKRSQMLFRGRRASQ

T3: mouse recombinant IFN-γ, P01580
T3 chain: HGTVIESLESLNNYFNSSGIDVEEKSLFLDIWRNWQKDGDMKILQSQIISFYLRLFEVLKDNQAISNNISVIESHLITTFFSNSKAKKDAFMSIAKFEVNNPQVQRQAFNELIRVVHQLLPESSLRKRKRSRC

T4: mouse recombinant TNF-α, P06804
T4 chain: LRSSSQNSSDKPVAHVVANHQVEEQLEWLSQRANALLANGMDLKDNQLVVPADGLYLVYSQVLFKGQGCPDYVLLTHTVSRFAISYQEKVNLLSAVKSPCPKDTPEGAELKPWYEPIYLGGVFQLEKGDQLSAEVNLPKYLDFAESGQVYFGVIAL


Legend:
D-val-leu-lys-pNA = target: T1, D-val-leu-lys-pNA
[1] = target: Protamine sulfate from salmon
[2] = target: T2, human recombinant IFN-γ, P01579
[3] = target: human recombinant TNF-α, P01375
[4] = target: T3, mouse recombinant IFN-γ, P01580
[5] = target: T4, mouse recombinant TNF-α, P06804

Chain of human recombinant TNF-α, P01375 (P01375 77-233): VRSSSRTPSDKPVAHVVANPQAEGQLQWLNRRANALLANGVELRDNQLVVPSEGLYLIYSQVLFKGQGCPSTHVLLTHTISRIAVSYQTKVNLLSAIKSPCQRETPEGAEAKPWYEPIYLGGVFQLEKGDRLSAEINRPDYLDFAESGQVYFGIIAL

| Protein | Specific activity: Val-leu-lys-pNA (mOD/min/µg protein) (mOD/min/µg protein) (D-val-leu-lys-pNA) | Specific activity: Salmon protamine (nmoles Leucine/30 min./µg protein) (nmoles Leucine/30 min./µg protein) [1] | cleavage by Western blot [2] | proteolysis by Western blotting [3] | cleavage by Western blotting [4] | cleavage by Western blotting [5] |
| --- | --- | --- | --- | --- | --- | --- |
| Aspergillus oryzae 26 kDa protease (protein) HASADAWASSKAISSTSSPSSFKMRFISVSSLLLALAPALNAVPVEVAGSAQGLDVTLSQVGNTRIKAWKNTGSEDVTFVHLNFFKDAAPVQKVSLFRNATEVQFQGIKQRLITEGLSDDALTTLAPGATIEDEFDIASTSDLSEGGTITINSNGLVPITTDNKVTGYIPFTSNELSIDVDAAEAASVTQAVKILERRTKVTSCSGSRLSALQTALRNTVSLARAAATAAQSGSSSRFQEYFKTTSSSTRSTVAARLNAVANEAASTSSGSTTYYCSDVYGYCSSNVLAYTLPSYNIIANCDLYYSYLPALTSTCHAQDQATTTLHEFTHAPGVYSPGTDDLGYGYSAATALSASQALLNADTYALFANAVNLNC | 2.1 | 679 | cleave human IFN-γ | – | – | – |
| Aspergillus oryzae alkaline protease (protein) GLTTQKSAPWGLGSISHKGQQSTDYIYDTSAGEGTYAYVVDSGVNVDHEEFEGRASKAYNAAGGQHVDSIGHGTHVSGTIAGKTYGIAKKASILSVKVFQGESSSTSVILDGFNWAANDIVSKKRTSKAAINMSLGGGYSKAFNDAVENAFEQGVLSVVAAGNENSDAGQTSPASAPDAITVAAIQKSNNRASFSNFGKVVDVFAPGQDILSAWIGSSSATNTISGTSMATPHIVGLSLYLAALENLDGPAAVTKRIKELATKDWKDVKGSPNLLAYNGNA | 117 | 951 | the protease did not cleave human IFN-γ | produced a similar pattern of cleavage | evidenced the same substrate specificity | evidenced the same substrate specificity |
| Aspergillus oryzae Deuterolysin (Neutral Protease II) (protein) TEVTDCKGDAESSLTTALSNAAKLANQAAEAAESGDESKFEEYFKTTDQQTRTTVAERLRAVAKEAGSTSGGSTTYHCNDPYGYCEPNVLAYTLPSKNEIANCDIYYSELPPLAQKCHAQDQATTTLHEFTHAPGVYQPGTEDLGYGYDAATQLSAQDALNNADSYALYANAIELKC | 2.3 | 677 | cleave human IFN-γ | deuterolysin was without significant effect | – | – |
